experiment: soluble on expression in E. coli; label from the status in PepcDB or PDB records

Question: Which “soluble on expression in E. coli” value does the source give for “SNAMANTSSDWAGAPQNASADGEFVRDTNYIDDRIVADVPAGSEPIAQEDGTFHWPVEAGRYRLVAARACPWAHRTVITRRLLGLENVISLGLTGPTHDVRSWTFDLDPNHLDPVLQIPRLQDAYFNRFPDYPRGITVPALVEESSKKVVTNDYPSITIDFNLEWKQFHREGAPNLYPAELREEMAPVMKRIFTEVNNGVYRTGFAGSQEAHNEAYKRLWVALDWLEDRLSTRRYLMGDHITEADIRLYPTLVRFDAVYHGHFKCGRNKITEMPNLWGYLRDLFQTPGFGDTTDFTEIKQHYYITHAEINPTRIVPVGPDLSGFATPHGREKLGGSPFAEGVTLPGPIPAGEEVKNPEPFQK” here?
Answer: soluble

Question: Which “soluble on expression in E. coli” value does the source give for “MTQCYAEITGWGKCLPPATLSNHDLSTFLDTSDEWIQSRTGIEQRRISHVNTSDLATVAAQHAIACAGVSVEEIDLIIVATCSPDSLIPNIASRVQQNLGIPSAAAFDLNAACTGFLYGLETATRLMQASHYRHALVIGAERLSFYLDWTKRDTAVLFGDGAGAVVLSKTEQKVGLQDAQIGCDAQGRDILAVPKFGTAMDRFDADNGYWAFDFVGKEIFKRAVRGMGAAAQQVLARSGLSTEEIDVVIPHQANIRIIQTLCDLAGIAQDKAFVNIHRYGNTSAATVPIALCEALEQGKIKPHDDLLVAAFGAGLTWGAGHIRWGERITPLGKSDAQLPSCDHTALDLLSKAIEHCKRHQSE” here?
Answer: not soluble

Question: For “QPTAQQQLTKPAKITCANCKKPLQKGQTAYQRKGSAHLFCSTTCLSSFS”, which “soluble on expression in E. coli” value is on record?
Answer: soluble

Question: With “MAYTEEQIENIKTRILTALEEVIDPELGIDIVNLGLIYEIRFDGDTGQTEIDMTLTTMGCPLADLLTDQIYDAMIEVPEVTDTEVKLVWYPAWTVEKMSRYARIALGIK” as the sequence, how does the “soluble on expression in E. coli” value read?
Answer: not soluble

Question: For “MEFLLLDDRENLKLAIIRKLEQQYSFSERKDRLCKQLAISPYLLERNITEINADLQRFGLINEMEISEKNNEILLSQSLRISSSIIEEYYLKDSLEFNLLKTIFFHQFTSIKKYGEKHGMSRTVVYKIVDHIRKELGQYGIKLSKNLQLSGNEMAIRQYFTMLYYRIYKDSEELYNQTDLRAVNQLLAQLKGSYENITNFHLFKHYVLVALERTQRKANYFLSQEENPFAFDEESSIYQEIQSWINEVMKATHAEKNAEIQGIIGNLSVYQSELISEHLLSSHNEAITATKTLFFSYMPFTISDEEFYQEIVPIIYQHRFITPFIDITLRIMDLEFFQERYPIVFNSCRQFLFALDCSAFEFSKLSLFFDLLLVLSRLYDQRNEKSTINLYVNFTQGEKYTQFIKEQIKIFESFSIHFHSAIRPDTDLVVSDYLPKTLFSVKCLIWLAPPRASDWQNFGNEIVRINKELQQTKQRKSE”, which “soluble on expression in E. coli” value is on record?
Answer: not soluble

Question: For “MQIQKSFKGQSPYGKLYLVATPIGNLDDMTFRAIQTLKEVDWIAAEDTRNTGLLLKHFDISTKQISFHEHNAKEKIPDLIGFLKAGQSIAQVSDAGLPSISDPGHDLVKAAIEEEIAVVTVPGASAGISALIASGLAPQPHIFYGFLPRKSGQQKQFFGLKKDYPETQIFYESPHRVADTLENMLEVYGDRSVVLVRELTKIYEEYQRGTISELLESIAETPLKGECLLIVEGASQGVEEKDEEDLFVEIQTRIQQGVKKNQAIKEVAKIYQWNKSQLYAAYHDWEEKQ”, which “soluble on expression in E. coli” value is on record?
Answer: not soluble

Question: With “MAHHHHHHMLPHSVPTSPHQERDRPLEQMTDEELRRELVMLIRTNAILAEESAGLQADISALCEESVRFQQSTEIEEDKVTNQLLRRLQSEEVQKHRFHHQILCEEKARRKIMDQITQVRQQMELEKQLEQEQEVQRMELQRKLIDVVNKKIEVERQLLEERRVQLEALTTKLASIKEGSLAAKSKVDGAVGSRGTQGPSASSQQCQSGTANMTHESPAAAAAAAVAASSQPPPVKTETVPSSVDLPASDVAGDDTHGTIIRLEEQLNRLLEQHAAATQASATNESLCTELGRNLETIQQAASVDRARTLKLKEELQETKRRVAVLEQRAAVGTAYAASDDSSDLPTPSVSSLYDDKRRESLLNCHQRYPSSCVPPSCSASEAGEDTRSV” as the sequence, how does the “soluble on expression in E. coli” value read?
Answer: not soluble

Question: With “MKWYTKYLQVYEKPFSEAPQEIVEEVRNKLKLLQSDNPLVTVSLIGYNEEKHLLASLWSLSEMKCKYPIEIIGTDNDSKDQTATIYEATGIPYVIEHQHSCGHARLCGLKRAKGKYHINIDSDTMYPPHYVETMVDALERPGIVAVSSLWSYIPDKEHSWVGLKIYEFIRDIHLWIQSIKRPELSVRGLVFAYRTDYARQVGIRTDIRRGEDGSLALRLKEYGNIYFIRKRKARAITGYGTISADGSLFNSFKVRAIYALKNIGRVFTRKKEYKDEDDNLIKSLEHHHHHH” as the sequence, how does the “soluble on expression in E. coli” value read?
Answer: soluble

Question: For “MDIRPARISDLTGMQNCNLHNLPENYQLKYYLYHAISWPMLSYVATDPKGRVVGYVLAKMEEEPKDGIPHGHITSVSVMRSYRHLGLAKRLMVQSQRAMVEVYGAKYMSLHVRKSNRAAIHLYRDTLQFDVQGIESKYYADGEDAYAMHKDFSTLKFDTPETNDELAKTVQSLALNN”, which “soluble on expression in E. coli” value is on record?
Answer: soluble

Question: Which “soluble on expression in E. coli” value does the source give for “MKTAAYMIHCLTNMHVGKGDATYEVVDKCVQRDVTTGMPCIYSSSLKGALRQFFSKQGFAELNYVFGKDQSRDKKNNGNEKNEEEHSVGNFTFFQANLLAYPVQTTQEGATYILKTNKTLQDPIKELANLFSAPSNIEEMLPKETEKDLSNETLEQLPVIARNQLDNGKSENLWYEEVVPAESRFVFFVSYDDEEIFTKFDKIIQEKVIQIGANGSIGYGFCKIANVTNPFKK” here?
Answer: soluble

Question: For “MAGVKYPGQDPVDLDIYQSSHMVDYQPYRKHKYSRVTPQEQAKLDAQLRDKEFYRPIPNPNPKLTDGYPAFKRPHMTAKDLGLPGFFPSQEHEATREDERKFTSTCHFTYPASHDLHLAQGDPNQVLQSADFPCLVDPKHQPAAEMAKGYLLLPGCPCLHCHIVKVPILNRWGPLMPFYQ”, which “soluble on expression in E. coli” value is on record?
Answer: not soluble

Question: With “MGSDKIHHHHHHMENIALLGIDLGKHIFHVHAQDKAGHQLWRRKLNRKQLVELVANTPACRIVMESCSGAHHFARRFLQFGHDVKLIAPQYVKPFVKGNKNDFVDAEAICEAASRPAMRFAAVRNEQQQTISALHRTRDMLIRSRGSAHNQIHAYLVEFGVAIGTGPAAIRKLPAVLQAMTYRRALSPCWSNFGITFFISTSRSPLSSAN” as the sequence, how does the “soluble on expression in E. coli” value read?
Answer: not soluble

Question: For “MFSQWVFLSVLALAVPSFAWAEDAVSDLAREQSKAEQGDKRGDELFAEFTRLRQAAETGEPQALFDFGAYFYQQQNYASAREWWGKAAAAGMVRAQIQLAMLYRDGDGGPQDKTEAARWFRKAAEQGDAAAQNEMGVLYWRGEGVDQDRVKAGTWFERAAASGSEDAETNLGWFYLDDSQGVYSATSDEEAALLDRYAGSREKAFQWFCKAATQGDARAQFKVGEAYWNGSGAGMNKLQARLWLEKAAQQQDADAIAWLESAANAAWYTRLENWIHAALDGELSGVADCSGAADRRHSGRGMEGAPSDPEAVEASAEDAQQAVEAASQ”, which “soluble on expression in E. coli” value is on record?
Answer: not soluble

Question: For “MAHHHHHHMIDPVKRDLTNLFLEKREMAKEEIDPRKDWLKRILLNNNTNDLRMFLKASELKTKEGDYCMTCKSNVKQLLYLHTKKNYCHLCEEIFCAYCVKSIDFMKDEKEKYIKIRLCRNCFIYINELKYIINPNLSVDRKAIDLQNSFNDISNCYTNLCSNVPQLNGLVLLCENNKEFLDSFKSEIKQLEEKIQHDVDFLNIMKKKNNFLSDNTLILNKMGKNLLLYLKIIRNKIIPSSIEVLNKTKELLYKK”, which “soluble on expression in E. coli” value is on record?
Answer: not soluble

Question: With “MAHHHHHHMCDTANEADGKKLNKKAKSISVVKFKDKEKKKFVSLSSKEETSVQDLPLGCPVCYVPLTVDFNLLNQVEEQDEEEMIVCKEETTYINKSFINRINTNEYRSSTKIEAVFEEVKNVIHTTDDKCLIFSQYCSMLDLIEYHLKKHNIICSKLLGYMPMVSRNNILYNFNEDKHLRVLLISLKAGGEGLNLQVANRIFIVDPWWNPAAELQAIQRAHRIGQTKTVYATRFIIENTVEEKIVQLQNKKQLVFDCTIGDSGNAMQKLTKEDLAFLFHA” as the sequence, how does the “soluble on expression in E. coli” value read?
Answer: not soluble

Question: With “MTAQTPRPYPSPYGRGNWYADTVTDVPASPPLDGDVAAEVCIIGAGFTGLGAALALGSRAVVLEAGRIGCAASGRNGGQVHTGQRRDQAWLEKTVGRDDALALWRLAEEARAHFASLVTAIDCDWRPGMIHARHKPGGEAEDADYLALMADRYGYDQLELIGETALAHELGTDVYHGGLADHGGGHVHPLKLAQGMAAQARAAGAVIHENTRADAWRREGGKIVVETGGGRVTCDQLILSGDGLLNRMAGPAQARVMPINNFIAVTAPLGALADEIIRSNAAVSDSRFVVNYFRKTPDGRLLFGGGENYRPGFPHDIAGLVRKNLAKIYPRLADVEITHAWGGTLGITFSRMPFVGEVAQGVRVAAGYSGQGVMLAPYVGKLLAEAALGETGPVDLLSRLPTPPFPGGRLLRWPLTVAGLSWYALRDRLLEHHHHHH” as the sequence, how does the “soluble on expression in E. coli” value read?
Answer: not soluble

Question: With “MDGAQPKTNFFERLIARLAREPDSAEDVLNLLRQAHEQEVFDADTLTRLEKVLDFAELEVRDAMITRSRMNVLKENDSIERITAYVIDTAHSRFPVIGEDKDEVLGILHAKDLLKYMFNPEQFHLKSVLRPAVFVPEGKSLTALLKEFREQRNHMAIVIDEYGGTSGLVTFEDIIEQIVGDIEDEFD” as the sequence, how does the “soluble on expression in E. coli” value read?
Answer: soluble

Question: With “MILTPIRRYGAMILMLLTLVFSSEVLAKTHTTTASQKSHLTKASNKQVSSKQEYSRNSAKSSSLPDLRKYPSGTSRKKAFLRTVMPYITSQNAAITAERNWLISKQYQGQWSPAERARLKDIAKRYKVKWSGNTRKIPWNTLLERVDIIPTSMVATMAAAESGWGTSKLARNNNNLFGMKCMKGRCTNAPGKVKGYSQFSSVKESVSAYVTNLNTHPAYSSFRKSRAQLRKADQEVTATAMIHKLKGYSTKGKSYNNYLFAMYQDNQRLIAAHM” as the sequence, how does the “soluble on expression in E. coli” value read?
Answer: not soluble

Question: With “MSNQLFDAYFTAPAMREIFSDRGRLQGMLDFEAALARAEASAGLVPHSAVAAIEAACQAERYDTGALANAIATAGNSAIPLVKALGKVIATGVPEAERYVHLGATSQDAMDTGLVLQLRDALDLIEADLGKLADTLSQQALKHADTPLVGRTWLQHATPVTLGMKLAGVLGALTRHRQRLQELRPRLLVLQFGGASGSLAALGSKAMPVAEALAEQLKLTLPEQPWHTQRDRLVEFASVLGLVAGSLGKFGRDISLLMQTEAGEVFEPSAPGKGGSSTMPHKRNPVGAAVLIGAATRVPGLLSTLFAAMPQEHERSLGLWHAEWETLPDICCLVSGALRQAQVIAEGMEVDAARMRRNLDLTQGLVLAEAVSIVLAQRLGRDRAHHLLEQCCQRAVAEQRHLRAVLGDEPQVSAELSGEELDRLLDPAHYLGQARVWVARAVSEHQRFTA” as the sequence, how does the “soluble on expression in E. coli” value read?
Answer: soluble

Question: With “MGHHHHHHSHMHVDREFAVVTDMKNSSSVSNTLTNGCVINGHLDFPSTTPLSGMESRNGQCLTGTNGISSGLAPGQPFPSSQGSLCISGTEEPEKTLRANPELCGSLHLNGSPSSCIASRPSWVEDIGDNLYYGHYHGFGDTAESIPELNSVVEHSKSVKVQERYDSAVLGTMHLHHGS” as the sequence, how does the “soluble on expression in E. coli” value read?
Answer: not soluble

Question: For “MSLKYLLLGMMLLGSFAASAGMDPQQLKQTIEQRLGVQVYLVDETPMPGLYMLGTAQGLLYTDARGDYVLQGTMLDLAHDMKNLTMLGLRQQRQLALAQIGERRVQLRAEQERHRVTLFTDLACSSCRTTLAELPVLQARGVSVQLLPVLGTFADLAEAQARWCDPRQFDALDLSDRLPETGCNEILAHHIGLSQWLGIKALPSWVLPNGDLVRGYQSPEQLLKILDHINAPANPSSEGHHHHHH”, which “soluble on expression in E. coli” value is on record?
Answer: soluble

Question: Which “soluble on expression in E. coli” value does the source give for “MLKQPIQAQQLIELLKVHYGIDIHTAQFIQGGADTNAFAYQADSESKSYFIKLKYGYHDEINLSIIRLLHDSGIKEIIFPIHTLEAKLFQQLKHFKIIAYPFIHAPNGFTQNLTGKQWKQLGKVLRQIHETSVPISIQQQLRKEIYSPKWREIVRSFYNQIEFDNSDDKLTAAFKSFFNQNSAAIHRLVDTSEKLSKKIQPDLDKYVLCHSDIHAGNVLVGNEESIYIIDWDEPMLAPKERDLMFIGGGVGNVWNKPHEIQYFYEGYGEINVDKTILSYYRHERIVEDIAVYGQDLLSRNQNNQSRLESFKYFKEMFDPNNVVEIAFATEQLEHHHHHH” here?
Answer: soluble
